According to article PMC2802489:

Columns and labels:
Test in all cases: purified protein
[1] = system: CC(C)C=O; settings: 0.25 mM NADH, 50 mM MOPS pH 7.0, 37 °C, 100 nM enzyme
[2] = system: CC=O; settings: 0.25 mM NADH, 50 mM MOPS pH 7.0, 37 °C, 100 nM enzyme
[3] = substrate: CC(C)C=O; format: biochemical, Escherichia coli; settings: 0.25 mM NADPH, 50 mM MOPS pH 7.0, 37 °C, 100 nM enzyme
[4] = substrate: CC=O; format: biochemical, Escherichia coli; settings: 0.25 mM NADPH, 50 mM MOPS pH 7.0, 37 °C, 100 nM enzyme
[5] = substrate: CC=O; format: biochemical, Saccharomyces cerevisiae; settings: 0.25 mM NADH, 50 mM MOPS pH 7.0, 37 °C, 100 nM enzyme

Molecule “AdhA (Lactococcus lactis subsp. lactis Il1403)” has a Km [1] of 9100 ± 2900 µM, a kcat [1] of 6.6 ± 0.2 s⁻¹ and a kcat/Km [1] of 800 M⁻¹ s⁻¹. For the same molecule, the Km [2] was 500 ± 200 µM, the kcat [2] was 10 ± 0.3 s⁻¹ and the kcat/Km [2] was 20900 M⁻¹ s⁻¹.

B1: YqhD (Escherichia coli K-12) (protein)
chain: NNFNLHTPTRILFGKGAIAGLREQIPHDARVLITYGGGSVKKTGVLDQVLDALKGMDVLEFGGIEPNPAYETLMNAVKLVREQKVTFLLAVGGGSVLDGTKFIAAAANYPENIDPWHILQTGGKEIKSAIPMGCVLTLPATGSESNAGAVISRKTTGDKQAFHSAHVQPVFAVLDPVYTYTLPPRQVANGVVDAFVHTVEQYVTKPVDAKIQDRFAEGILLTLIEDGPKALKEPENYDVRANVMWAATQALNGLIGAGVPQDWATHMLGHELTAMHGLDHAQTLAIVLPALWNEKRDTKRAKLLQYAERVWNITEGSDDERIDAAIAATRNFFEQLGVPTHLSDYGLDGSSIPALLKKLEEHGMTQLGENHDITLDVSRRIYEAAR
B1 gave a Km [3] of 1800 ± 1300 µM, a kcat [3] of 1 ± 0.1 s⁻¹ and a Km [4] of 27600 ± 12400 µM. It also gave a kcat [4] of 1.1 ± 0.1 s⁻¹ and a kcat/Km [4] of 50 M⁻¹ s⁻¹.

B2: Adh2 (Saccharomyces cerevisiae S288C) (protein)
chain: SIPETQKAIIFYESNGKLEHKDIPVPKPKPNELLINVKYSGVCHTDLHAWHGDWPLPTKLPLVGGHEGAGVVVGMGENVKGWKIGDYAGIKWLNGSCMACEYCELGNESNCPHADLSGYTHDGSFQEYATADAVQAAHIPQGTDLAEVAPILCAGITVYKALKSANLRAGHWAAISGAAGGLGSLAVQYAKAMGYRVLGIDGGPGKEELFTSLGGEVFIDFTKEKDIVSAVVKATNGGAHGIINVSVSEAAIEASTRYCRANGTVVLVGLPAGAKCSSDVFNHVVKSISIVGSYVGNRADTREALDFFARGLVKSPIKVVGLSSLPEIYEKMEKGQIAGRYVVDTSK
Work on B2 yielded a Km [5] of 140 ± 20 µM, a kcat [5] of 6.6 ± 0.5 s⁻¹ and a kcat/Km [5] of 46900 M⁻¹ s⁻¹.
